Publication PMC3066073
Like-named read-outs stand apart in the source and are kept apart here.

B1: PKC-theta Wt probe I (dsDNA)
DNA 1: CAAATGCCTGGGGTAGGTCA
DNA 2: TGACCTACCCCAGGCATTTG
B2: PKC-theta Wt probe III (dsDNA)
DNA 1: ATGAGCCACCGCACCTGGCC
DNA 2: GGCCAGGTGCGGTGGCTCAT

Assays:
RUNX1 (recombinant) [1] = target: T1, RUNX1 (recombinant) (UniProt Q01196 1-453); assay: EMSA, supershift
RUNX1 (recombinant) [2] = target: T1, RUNX1 (recombinant); assay: EMSA, supershift; remark: listed apart in the source

T1 sequence (Q01196 whole entry): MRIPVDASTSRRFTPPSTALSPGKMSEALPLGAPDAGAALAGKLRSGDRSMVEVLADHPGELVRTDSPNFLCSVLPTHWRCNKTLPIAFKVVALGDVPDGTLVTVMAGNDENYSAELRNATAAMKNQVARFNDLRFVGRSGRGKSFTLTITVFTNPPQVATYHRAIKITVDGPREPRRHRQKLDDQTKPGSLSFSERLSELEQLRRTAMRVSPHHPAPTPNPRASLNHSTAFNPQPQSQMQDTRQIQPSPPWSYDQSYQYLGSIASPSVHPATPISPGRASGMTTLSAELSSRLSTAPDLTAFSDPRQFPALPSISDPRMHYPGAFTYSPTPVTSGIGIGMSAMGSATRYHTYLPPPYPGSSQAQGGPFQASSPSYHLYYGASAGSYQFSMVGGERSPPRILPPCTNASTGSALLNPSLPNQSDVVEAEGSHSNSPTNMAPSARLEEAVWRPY

| Binder | binding result (RUNX1 (recombinant) [1]) | binding result (RUNX1 (recombinant) [2]) |
| --- | --- | --- |
| B1 | binds | – |
| B2 | – | binds |
